Assay results as given in publication PMC12509998.

How the values were obtained:
[1] = biological target: eukaryotic elongation factor 2 kinase (UniProt O00418)
[2] = biological target: eukaryotic elongation factor 2 kinase (UniProt O00418); remark: listed apart in the source

Chain of eukaryotic elongation factor 2 kinase (O00418 whole entry): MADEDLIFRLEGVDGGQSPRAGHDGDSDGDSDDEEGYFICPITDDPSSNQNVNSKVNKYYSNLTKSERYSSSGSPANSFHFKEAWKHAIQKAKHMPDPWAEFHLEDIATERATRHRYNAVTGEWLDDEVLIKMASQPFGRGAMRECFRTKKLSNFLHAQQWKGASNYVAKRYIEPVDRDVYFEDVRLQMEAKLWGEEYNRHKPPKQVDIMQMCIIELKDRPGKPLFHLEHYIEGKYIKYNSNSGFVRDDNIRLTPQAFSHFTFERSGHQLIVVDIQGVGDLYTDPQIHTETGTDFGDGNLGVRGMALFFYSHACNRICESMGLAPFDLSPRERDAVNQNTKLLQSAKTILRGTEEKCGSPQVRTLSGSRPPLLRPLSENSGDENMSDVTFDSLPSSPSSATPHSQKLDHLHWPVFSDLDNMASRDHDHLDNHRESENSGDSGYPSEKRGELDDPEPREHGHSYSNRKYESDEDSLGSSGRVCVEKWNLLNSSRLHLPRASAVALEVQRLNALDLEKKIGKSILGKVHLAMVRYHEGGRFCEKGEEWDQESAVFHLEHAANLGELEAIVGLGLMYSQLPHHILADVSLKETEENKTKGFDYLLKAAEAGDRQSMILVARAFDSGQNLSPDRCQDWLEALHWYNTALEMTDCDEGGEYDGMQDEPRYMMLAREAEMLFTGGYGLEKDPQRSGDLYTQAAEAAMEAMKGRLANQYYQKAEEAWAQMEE

KCaM^app of eEF-2K (0.5 nM) activity toward 5 μM yeast eEF-2, 50 μM free Ca2+ [1]	KCaM (concentration of CaM at half-maximal activity) of T348-phosphorylated eEF-2K toward 150 μM peptide substrate, 50 μM free Ca2+ [2]	KCaM (concentration of CaMC at half-maximal activity) of T348-phosphorylated eEF-2K toward 150 μM peptide substrate, 50 μM free Ca2+ [2]	Substance
121 nM	67 nM		calmodulin, full-length (from UniProt P0DP23 1-149) (natural protein)
156 nM		85 nM	isolated C-terminal lobe of calmodulin (residues 76-148) (from UniProt P0DP23 77-149) (domain or fragment)
